± gives the uncertainty stated by the source.

The results in this text go back to the supplement of paper PMC7877785.

This series in a line: self-splicing fitness, log relative to wild type (ln ratio); higher = more splicing; Tetrahymena group I intron in knt gene, E. coli kanamycin selection, DiMSum; sequences stand for … in CUCUCU…GGAGGGAAAAGUUAUCAGGCAUGCACCUGGUAGCUAGUCUUUAAACCAAUAGAUUGCAUCGGUUUAAAAGGCAAGACCGUCAAAUUGCGGGAAAGGGGUCAACAGCCGUUCAGUACCAAGUCUCAGGGGAAACUUUGAGAUGGCCUUGCAAAGGGUAUGGUAAUAAGCUGACGGACAUGGUCCUAACCACGCAGCCAAGUCCUAAGUCAACAGAUCUUCUGUUGAUAUGGAUGCAGUUCACAGACUAAAUGUCGGUCGGGGAAGAUGUAUUCUUCUCAUAAGAUAUAGUCGGACCUCUCCUUAAUGGGAGCUAGCGGAUGAAGUGAUGCAACACUGGAGCCGCUGGGAACUAAUUUGUAUGCGAAAGUAUAUUGAUUAGUUUUGGAGUACUCGUGGUCG
Put shortly:
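A randomised library covering all eight P1ex-region intron nucleotides was built with the intron in the knt kanamycin-resistance gene on pET-22b(+) and held in E. coli BL21(DE3). Cells were grown overnight at 37°C or 30°C on LB agar, with or without 25 μg/mL kanamycin, plus 100 μg/mL carbenicillin, 50 μM IPTG and 0.2% rhamnose, and pooled colonies were amplicon-sequenced on an Illumina HiSeq 2500. DiMSum fitness is the error-weighted combination of wild-type-normalised replicate fold changes, kanamycin versus none.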

As for GACUAGCAAUAUUACGUUCU, the “self-splicing fitness (ln)” value is -3.33 ± 0.26 (30 °C) and -0.968 ± 0.14 (37 °C).

Regarding UGAUAGCAAUAUUACGUAAG, the “self-splicing fitness (ln)” value (30 °C) is -1.52 ± 0.093 and the “self-splicing fitness (ln)” value (37 °C) is -0.601 ± 0.11.

On to AAAAAGCAAUAUUACGGUCA, for which the “self-splicing fitness (ln)” value is, setting by setting: (30 °C) -0.0389 ± 0.065; (37 °C) 0.206 ± 0.082.

Regarding CAACAGCAAUAUUACGUGCA, the “self-splicing fitness (ln)” value (30 °C) is -2.72 ± 0.11 and the “self-splicing fitness (ln)” value (37 °C) was -1.57 ± 0.092.

For the sequence CUGCAGCAAUAUUACGUACA, the “self-splicing fitness (ln)” value is -2.96 ± 0.29 (30 °C) and -1.43 ± 0.19 (37 °C).

As for GAACAGCAAUAUUACGCAGG, the “self-splicing fitness (ln)” value by setting is: (30 °C) -3.74 ± 0.14; (37 °C) -2.7 ± 0.11.

As to AGGGAGCAAUAUUACGCCAA, under “37 °C”, the “self-splicing fitness (ln)” value was -2.67 ± 0.38.

As to AGCCAGCAAUAUUACGGCUA, the “self-splicing fitness (ln)” value was -2.42 ± 0.15 (30 °C) and -0.727 ± 0.11 (37 °C).

Consider AUCUAGCAAUAUUACGCACU, for which the “self-splicing fitness (ln)” value (30 °C) was -1.42 ± 0.17 and the “self-splicing fitness (ln)” value (37 °C) amounted to 0.0807 ± 0.17.

As to CCGUAGCAAUAUUACGUUUC, the “self-splicing fitness (ln)” value (30 °C) was -3.05 ± 0.16 and the “self-splicing fitness (ln)” value (37 °C) is -3.47 ± 0.29.

AGCUAGCAAUAUUACGAGGG: the “self-splicing fitness (ln)” value is -3.75 ± 0.21 (30 °C) and -1.34 ± 0.14 (37 °C).

On to CAGCAGCAAUAUUACGAUGG, for which the “self-splicing fitness (ln)” value by setting is: (30 °C) -0.264 ± 0.07; (37 °C) 0.177 ± 0.092.

Regarding GCACAGCAAUAUUACGCUUC, the “self-splicing fitness (ln)” value (30 °C) was -2.21 ± 0.094 and the “self-splicing fitness (ln)” value (37 °C) was -1.3 ± 0.098.

With GGCCAGCAAUAUUACGCUUG, the “self-splicing fitness (ln)” value (30 °C) is -4.13 ± 0.26 and the “self-splicing fitness (ln)” value (37 °C) was -2.58 ± 0.2.

As for CCUCAGCAAUAUUACGAUCC, the “self-splicing fitness (ln)” value (30 °C) was -2.43 ± 0.44.

With AGCGAGCAAUAUUACGACGU, the “self-splicing fitness (ln)” value runs as follows: (30 °C) -1.74 ± 0.083; (37 °C) -0.339 ± 0.11.

Turning to CUCGAGCAAUAUUACGCUCA, the “self-splicing fitness (ln)” value by setting is: (30 °C) -1.96 ± 0.27; (37 °C) -2.15 ± 0.45.

For UAUUAGCAAUAUUACGUGUC, under “30 °C”, the “self-splicing fitness (ln)” value was -3.34 ± 0.39.

As to UAUUAGCAAUAUUACGAGGA, the “self-splicing fitness (ln)” value is, setting by setting: (30 °C) -2.33 ± 0.19; (37 °C) -1.54 ± 0.18.

GGGCAGCAAUAUUACGGUUG: the “self-splicing fitness (ln)” value reads like this: (30 °C) -1.94 ± 0.12; (37 °C) -1.11 ± 0.13.

Turning to GUGAAGCAAUAUUACGAACC, under “30 °C”, the “self-splicing fitness (ln)” value was -3.05 ± 0.29.

In the case of CGCCAGCAAUAUUACGUCAU, the “self-splicing fitness (ln)” value reads like this: (30 °C) -4.39 ± 0.19; (37 °C) -3.12 ± 0.18.

Turning to CCGGAGCAAUAUUACGGGUU, the “self-splicing fitness (ln)” value reads like this: (30 °C) -3.85 ± 0.39; (37 °C) -2.67 ± 0.37.

With UUAAAGCAAUAUUACGUAGG, the “self-splicing fitness (ln)” value is, setting by setting: (30 °C) -1.29 ± 0.11; (37 °C) 0.067 ± 0.13.

For the sequence GGUGAGCAAUAUUACGCGAA, the “self-splicing fitness (ln)” value runs as follows: (30 °C) -2.96 ± 0.14; (37 °C) -1.65 ± 0.13.

Take AGUGAGCAAUAUUACGUGAU: the “self-splicing fitness (ln)” value runs as follows: (30 °C) -2.87 ± 0.26; (37 °C) -2.74 ± 0.34.

For the sequence AGCGAGCAAUAUUACGGCUA, the “self-splicing fitness (ln)” value was -0.634 ± 0.19 (30 °C) and -0.479 ± 0.13 (37 °C).

For the sequence GUGAAGCAAUAUUACGUGGC, the “self-splicing fitness (ln)” value is -2.6 ± 0.14 (30 °C) and -2.41 ± 0.23 (37 °C).

For the sequence UAUUAGCAAUAUUACGCCCA, the “self-splicing fitness (ln)” value is, setting by setting: (30 °C) -0.378 ± 0.23; (37 °C) -0.366 ± 0.3.

Turning to GUAGAGCAAUAUUACGCACC, the “self-splicing fitness (ln)” value reads like this: (30 °C) -2.47 ± 0.28; (37 °C) -0.709 ± 0.2.

In the case of UCACAGCAAUAUUACGUAUC, the “self-splicing fitness (ln)” value runs as follows: (30 °C) -4.32 ± 0.46; (37 °C) -2.75 ± 0.19.

Turning to AUGAAGCAAUAUUACGAACC, the “self-splicing fitness (ln)” value (30 °C) turned out to be 0.0578 ± 0.14 and the “self-splicing fitness (ln)” value (37 °C) was 0.124 ± 0.17.

Take UUCAAGCAAUAUUACGAAGU: the “self-splicing fitness (ln)” value (30 °C) is -3.76 ± 0.37 and the “self-splicing fitness (ln)” value (37 °C) was -0.849 ± 0.23.

For UUCCAGCAAUAUUACGCAAG, the “self-splicing fitness (ln)” value runs as follows: (30 °C) -1.62 ± 0.07; (37 °C) -0.644 ± 0.09.

As to GUCCAGCAAUAUUACGCGAA, the “self-splicing fitness (ln)” value was -1.21 ± 0.11 (30 °C) and 0.483 ± 0.11 (37 °C).

Consider UUAGAGCAAUAUUACGAGAA, for which the “self-splicing fitness (ln)” value is, setting by setting: (30 °C) -1.75 ± 0.17; (37 °C) -0.981 ± 0.21.

In the case of AGACAGCAAUAUUACGCAGG, the “self-splicing fitness (ln)” value is, setting by setting: (30 °C) -3.5 ± 0.2; (37 °C) -1.25 ± 0.16.

Regarding CCGCAGCAAUAUUACGUAGG, the “self-splicing fitness (ln)” value reads like this: (30 °C) -2.6 ± 0.068; (37 °C) -2.95 ± 0.13.

For GGAGAGCAAUAUUACGGCGU, the “self-splicing fitness (ln)” value reads like this: (30 °C) -1.58 ± 0.2; (37 °C) -1.17 ± 0.26.
